In article PMC4808492:
Like-named read-outs stand apart in the source and are kept apart here.

Columns and labels:
[1] = molecular target: cation-independent M6P receptor (CI-MPR), on an affinity column (UniProt P08169); test: CI-MPR affinity column
[2] = molecular target: cation-independent M6P receptor (CI-MPR), on an affinity column (UniProt P08169); test: CI-MPR affinity column; remark: listed apart in the source

UniProt P08169, sequence (P08169 45-2499): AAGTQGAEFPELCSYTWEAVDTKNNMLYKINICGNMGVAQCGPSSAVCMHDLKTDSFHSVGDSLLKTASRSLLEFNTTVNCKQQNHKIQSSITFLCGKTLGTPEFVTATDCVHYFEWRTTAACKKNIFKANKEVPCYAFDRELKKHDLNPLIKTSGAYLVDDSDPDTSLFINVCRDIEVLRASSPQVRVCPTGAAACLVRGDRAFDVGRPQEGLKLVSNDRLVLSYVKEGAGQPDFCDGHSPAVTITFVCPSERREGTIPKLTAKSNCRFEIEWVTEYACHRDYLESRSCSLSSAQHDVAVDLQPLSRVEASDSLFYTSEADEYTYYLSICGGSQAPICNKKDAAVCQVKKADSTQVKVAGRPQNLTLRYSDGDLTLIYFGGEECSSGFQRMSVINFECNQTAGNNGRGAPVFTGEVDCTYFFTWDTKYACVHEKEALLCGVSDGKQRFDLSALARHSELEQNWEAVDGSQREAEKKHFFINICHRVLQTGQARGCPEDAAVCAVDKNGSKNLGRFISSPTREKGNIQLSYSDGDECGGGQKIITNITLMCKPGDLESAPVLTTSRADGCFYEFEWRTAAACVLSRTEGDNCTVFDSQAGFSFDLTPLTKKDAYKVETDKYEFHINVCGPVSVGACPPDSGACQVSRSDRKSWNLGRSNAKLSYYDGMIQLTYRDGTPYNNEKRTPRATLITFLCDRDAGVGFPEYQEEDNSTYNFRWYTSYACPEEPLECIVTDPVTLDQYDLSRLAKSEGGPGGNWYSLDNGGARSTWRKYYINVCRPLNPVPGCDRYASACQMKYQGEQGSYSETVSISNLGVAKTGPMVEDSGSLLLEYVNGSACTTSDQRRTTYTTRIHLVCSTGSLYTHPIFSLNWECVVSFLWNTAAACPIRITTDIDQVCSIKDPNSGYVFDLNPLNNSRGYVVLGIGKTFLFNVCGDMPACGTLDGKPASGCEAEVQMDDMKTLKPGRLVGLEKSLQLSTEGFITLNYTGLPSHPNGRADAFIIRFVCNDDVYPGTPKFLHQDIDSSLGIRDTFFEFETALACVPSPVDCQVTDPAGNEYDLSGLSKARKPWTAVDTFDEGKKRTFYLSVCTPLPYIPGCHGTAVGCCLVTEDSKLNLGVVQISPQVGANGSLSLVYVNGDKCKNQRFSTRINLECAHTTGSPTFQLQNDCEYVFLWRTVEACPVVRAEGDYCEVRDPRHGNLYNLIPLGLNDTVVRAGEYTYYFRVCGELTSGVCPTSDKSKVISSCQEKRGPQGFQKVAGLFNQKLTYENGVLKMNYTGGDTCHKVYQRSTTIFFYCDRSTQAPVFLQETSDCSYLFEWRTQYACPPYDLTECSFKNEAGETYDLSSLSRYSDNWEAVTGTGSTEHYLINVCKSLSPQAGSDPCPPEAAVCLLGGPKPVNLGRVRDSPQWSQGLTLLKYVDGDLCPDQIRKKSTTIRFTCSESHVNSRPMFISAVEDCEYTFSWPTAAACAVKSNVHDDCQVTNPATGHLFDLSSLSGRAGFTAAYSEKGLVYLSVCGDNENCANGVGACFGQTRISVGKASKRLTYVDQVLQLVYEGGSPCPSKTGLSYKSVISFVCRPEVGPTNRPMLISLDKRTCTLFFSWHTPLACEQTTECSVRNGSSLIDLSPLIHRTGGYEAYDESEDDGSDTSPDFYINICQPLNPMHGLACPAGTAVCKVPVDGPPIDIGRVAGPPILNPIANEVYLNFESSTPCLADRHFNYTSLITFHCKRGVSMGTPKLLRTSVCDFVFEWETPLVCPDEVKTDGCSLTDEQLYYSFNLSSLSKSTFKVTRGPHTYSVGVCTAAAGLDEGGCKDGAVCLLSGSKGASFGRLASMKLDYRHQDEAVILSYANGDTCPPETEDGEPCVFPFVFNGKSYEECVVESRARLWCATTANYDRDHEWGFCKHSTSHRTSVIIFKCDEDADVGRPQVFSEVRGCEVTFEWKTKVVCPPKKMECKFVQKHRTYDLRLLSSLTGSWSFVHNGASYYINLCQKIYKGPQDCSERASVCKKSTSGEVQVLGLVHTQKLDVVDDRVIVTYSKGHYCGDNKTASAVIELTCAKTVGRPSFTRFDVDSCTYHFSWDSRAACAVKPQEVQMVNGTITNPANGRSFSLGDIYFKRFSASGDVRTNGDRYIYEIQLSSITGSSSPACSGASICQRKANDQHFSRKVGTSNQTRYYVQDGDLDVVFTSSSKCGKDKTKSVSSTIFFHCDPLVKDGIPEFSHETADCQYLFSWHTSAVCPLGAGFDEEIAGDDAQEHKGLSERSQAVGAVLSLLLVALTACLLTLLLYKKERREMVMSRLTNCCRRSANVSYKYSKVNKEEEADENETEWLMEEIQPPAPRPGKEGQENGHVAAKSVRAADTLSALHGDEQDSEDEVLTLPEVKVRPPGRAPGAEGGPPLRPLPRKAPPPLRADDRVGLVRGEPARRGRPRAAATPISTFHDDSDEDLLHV

Substance	percent of enzyme activity bound to the column [1] [%]	percent of enzyme activity bound to the column [2] [%]
zebrafish cathepsin D (Ctsd) from WT animals (enzyme)	16	24.2
zebrafish cathepsin K (Ctsk) from WT animals (enzyme)	86	93.1
zebrafish cathepsin K (Ctsk) from MLII (gnptab morphant) embryos (enzyme)	17.2	–
zebrafish cathepsin D (Ctsd) from MLII (gnptab morphant) embryos (enzyme)	5	–
